B1: DCAF4 (parent)
chain: DSHILLCLMGLAETPGCATLLPAS

Variants of: B1
Assay: protein stability index of a GFP-peptide fusion (GPS, HEK-293T) (PSI 1-6); higher = more stable
Conditions: c terminus: a fixed tail appended
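Also: lentivirally expressed fusions sorted by FACS into six bins by GFP to DsRed ratio, PSI derived from sequencing read proportions per bin multiplied by bin number.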

Row | Variant | protein stability index
1 | DSHILLCLMGLAETPGCATLLPNS [A23N] | 3.13
2 | DSHILLCLMGLAETPGCATLLPIS [A23I] | 3.11
3 | DSHILLCLMGLAETPGCATLLPYS [A23Y] | 1.75
4 | DSHILLCLMGLAETPGCATLLPFS [A23F] | 3.27
5 | DSHILQCLMGLAETPGCATLLPAS [L6Q] | 1.81
6 | DSHILPCLMGLAETPGCATLLPAS [L6P] | 2.74
7 | DSHILFCLMGLAETPGCATLLPAS [L6F] | 2.68
8 | DSHILTCLMGLAETPGCATLLPAS [L6T] | 1.5
9 | DSHILICLMGLAETPGCATLLPAS [L6I] | 2.56
10 | DSHILLCLMGLAETPGLATLLPAS [C17L] | 2.23
11 | DSHILLCLMGLAETPGWATLLPAS [C17W] | 2.44
12 | DSHILLCLMGLAETPGDATLLPAS [C17D] | 1.47
13 | DSHILLCLMGLAETPGSATLLPAS [C17S] | 2.81
14 | DSHILLCLMGLAETPGNATLLPAS [C17N] | 1.99
15 | DSHILLCLMGLAETPGCATLFPAS [L21F] | 3.52
16 | DSHILLCLMGLAETPGCATLPPAS [L21P] | 2.25
17 | DSHILLCLMGLAETPGCATLTPAS [L21T] | 2.04
18 | DSHILLCLMGLAETPGCATLNPAS [L21N] | 3.01
19 | DSHILLCLMGLAETPGCATLEPAS [L21E] | 1.72
20 | DSHILLCLMGLAETPGCATLVPAS [L21V] | 2.17
21 | DSHILLCLMGLAETPGCATLSPAS [L21S] | 1.65
22 | DNHILLCLMGLAETPGCATLLPAS [S2N] | 2.39
23 | DEHILLCLMGLAETPGCATLLPAS [S2E] | 2.48
24 | DDHILLCLMGLAETPGCATLLPAS [S2D] | 2.64

Row | Variant | protein stability index
25 | DRHILLCLMGLAETPGCATLLPAS [S2R] | 2.46
26 | DTHILLCLMGLAETPGCATLLPAS [S2T] | 2.09
27 | DKHILLCLMGLAETPGCATLLPAS [S2K] | 2.03
28 | DGHILLCLMGLAETPGCATLLPAS [S2G] | 3.25
29 | DMHILLCLMGLAETPGCATLLPAS [S2M] | 2.31
30 | DAHILLCLMGLAETPGCATLLPAS [S2A] | 3.22
31 | DFHILLCLMGLAETPGCATLLPAS [S2F] | 3.1
32 | DPHILLCLMGLAETPGCATLLPAS [S2P] | 2.04
33 | DSHILLCLMGLAMTPGCATLLPAS [E13M] | 3.96
34 | DSHILLCLMGLAATPGCATLLPAS [E13A] | 3.31
35 | DSHILLCLMGLAQTPGCATLLPAS [E13Q] | 2.36
36 | DSHILLCLMGLAPTPGCATLLPAS [E13P] | 2
37 | DSHILLCLMGLACTPGCATLLPAS [E13C] | 2.88
38 | DSHILLCLMGLAVTPGCATLLPAS [E13V] | 4.1
39 | DSHILLCLMGLATTPGCATLLPAS [E13T] | 2.89
40 | DSHILLCLMGLAYTPGCATLLPAS [E13Y] | 3.33
41 | DSHILLCLLGLAETPGCATLLPAS [M9L] | 4.92
42 | DSHILLCLKGLAETPGCATLLPAS [M9K] | 1.42
43 | DSHILLCLWGLAETPGCATLLPAS [M9W] | 4.64
44 | DSHILLCLHGLAETPGCATLLPAS [M9H] | 2.14
45 | DSHILLCLCGLAETPGCATLLPAS [M9C] | 1.71
46 | DSHILLCLQGLAETPGCATLLPAS [M9Q] | 2.26
47 | DSHILLMLMGLAETPGCATLLPAS [C7M] | 2.11
48 | DSHILLGLMGLAETPGCATLLPAS [C7G] | 2.32

Row | Variant | protein stability index
49 | DSHILLALMGLAETPGCATLLPAS [C7A] | 2.67
50 | DSHILLSLMGLAETPGCATLLPAS [C7S] | 1.55
51 | DSHILLHLMGLAETPGCATLLPAS [C7H] | 2.9
52 | DSHILLWLMGLAETPGCATLLPAS [C7W] | 3.65
53 | DSHILLCLMGLAETPGCATKLPAS [L20K] | 2.4
54 | DSHILLCLMGLAETPGCATVLPAS [L20V] | 2.36
55 | DSHILLCLMGLAETPGCATTLPAS [L20T] | 2.07
56 | DSHILLCAMGLAETPGCATLLPAS [L8A] | 1.96
57 | DSHILLCRMGLAETPGCATLLPAS [L8R] | 2.62
58 | DSHILLCKMGLAETPGCATLLPAS [L8K] | 2.02
59 | DSHILLCYMGLAETPGCATLLPAS [L8Y] | 3.55
60 | DSHILLCMMGLAETPGCATLLPAS [L8M] | 3.25
61 | DSHILLCEMGLAETPGCATLLPAS [L8E] | 2.36
62 | DSHILLCWMGLAETPGCATLLPAS [L8W] | 2.07
63 | DSHILLCCMGLAETPGCATLLPAS [L8C] | 2.39
64 | DSHILLCLMGLAETPGCATLLPAY [S24Y] | 2.91
65 | DSHILLCLMGLAETPGCATLLPAP [S24P] | 2.36
66 | DSHILLCLMGLAETPGCATLLPAR [S24R] | 2.1
67 | DSHILLCLMGLAETPGCATLLPAW [S24W] | 2.76
68 | DSHILLCLMGLAETPGCATLLPAC [S24C] | 4.56
69 | DSHILLCLMGLAETPGCATLLPAN [S24N] | 2.69
70 | DSHILLCLMGLAETPGCATLLPAD [S24D] | 1.92
71 | SSHILLCLMGLAETPGCATLLPAS [D1S] | 3.75
72 | MSHILLCLMGLAETPGCATLLPAS [D1M] | 2.4

Row | Variant | protein stability index
73 | VSHILLCLMGLAETPGCATLLPAS [D1V] | 3.42
74 | YSHILLCLMGLAETPGCATLLPAS [D1Y] | 1.7
75 | ESHILLCLMGLAETPGCATLLPAS [D1E] | 2.55
76 | HSHILLCLMGLAETPGCATLLPAS [D1H] | 2.19
77 | DSHILLCLMGLAETAGCATLLPAS [P15A] | 3.15
78 | DSHILLCLMGLAETWGCATLLPAS [P15W] | 2.46
79 | DSHILLCLMGLAETGGCATLLPAS [P15G] | 2.54
80 | DSHILLCLMGLAETNGCATLLPAS [P15N] | 1.35
81 | DSHILLCLMGLAETKGCATLLPAS [P15K] | 1.78
82 | DSHILLCLMGLAETRGCATLLPAS [P15R] | 2.66
83 | DSHILLCLMGLAETTGCATLLPAS [P15T] | 2.3
84 | DSHILLCLMGLAETMGCATLLPAS [P15M] | 2.44
85 | DSHILLCLMGLAETYGCATLLPAS [P15Y] | 2.44
86 | DSHDLLCLMGLAETPGCATLLPAS [I4D] | 1.92
87 | DSHYLLCLMGLAETPGCATLLPAS [I4Y] | 2.33
88 | DSHFLLCLMGLAETPGCATLLPAS [I4F] | 2.53
89 | DSHCLLCLMGLAETPGCATLLPAS [I4C] | 2.15
90 | DSHSLLCLMGLAETPGCATLLPAS [I4S] | 1.82
91 | DSHRLLCLMGLAETPGCATLLPAS [I4R] | 1.77
92 | DSHVLLCLMGLAETPGCATLLPAS [I4V] | 3.46
93 | DSHPLLCLMGLAETPGCATLLPAS [I4P] | 1.86
94 | DSHQLLCLMGLAETPGCATLLPAS [I4Q] | 2.13
